Measurements as given in patent US20260167693A1.

Biological target: human CD19 (human) (UniProt P15391)
Assay: cell-based or functional assay

human CD19 (human), sequence (P15391 20-556): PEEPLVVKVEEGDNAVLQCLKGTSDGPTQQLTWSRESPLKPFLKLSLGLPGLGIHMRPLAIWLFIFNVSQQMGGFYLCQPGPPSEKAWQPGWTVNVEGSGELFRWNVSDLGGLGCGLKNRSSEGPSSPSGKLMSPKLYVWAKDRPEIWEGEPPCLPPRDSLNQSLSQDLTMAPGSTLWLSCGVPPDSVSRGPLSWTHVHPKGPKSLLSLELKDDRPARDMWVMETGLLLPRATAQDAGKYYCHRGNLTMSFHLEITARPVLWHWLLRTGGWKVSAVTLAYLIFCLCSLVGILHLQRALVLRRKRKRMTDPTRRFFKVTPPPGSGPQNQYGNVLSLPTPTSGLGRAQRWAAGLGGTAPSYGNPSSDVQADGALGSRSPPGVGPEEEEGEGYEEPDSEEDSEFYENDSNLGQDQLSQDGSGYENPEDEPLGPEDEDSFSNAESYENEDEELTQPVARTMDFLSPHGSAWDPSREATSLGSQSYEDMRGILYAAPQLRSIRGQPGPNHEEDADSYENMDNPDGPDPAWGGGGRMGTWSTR

Which NFAT-GFP (%) after overnight co-culture with RAJI cells does the source give for CD8SP-CD19BU12(vL-vH)-MYC-BBz-PAC here?
The NFAT-GFP (%) after overnight co-culture with RAJI cells was 30.2%.
